Article PMC9579014 (2022)
Numbering of substitutions follows the chain as printed.

B1: macrocypin 1a (protein)
chain: GFEDGFYTILHLAEGQHPNSKIPGGMYASSKDGKDVPVTAEPLGPQSKIRWWIARDPQAGDDMYTITEFEIDNSIPGQWSRSPVETEVPVYLYDRIKAEETGYTCAWRIQPADHGADGVYHIVGNVRIGSTDWADLREEYGEPQVYMKPVPVIPNVYIPRWFILGYEE
B2: clitocypin 2 (protein)
chain: MASLEDGIYRLRAVTTHNPDPGVGGEYATVEGARRPVKAEPNTPPFFAAQAWQVTRNADGQYTIKYQGLNTPFEYGFSYDELEPNAPVIAGDPKEYILQLVPSTADVYIIRAPIQRIGVDVEVGVQGNTLVYKFFPVDGSGGDRPAWRFTRE
B3: macrocypin 1a (protein)
chain: B1 chain with E70R, R95A
B4: macrocypin 1a (protein)
chain: B1 chain with E70R
B5: clitocypin 2 (protein)
chain: B2 chain with A48E, A49Q, A51I

Target: legumain (Homo sapiens) (UniProt Q99538)
Assay: not given
Settings: cited from earlier work

| Molecule | Ki [nM] |
| --- | --- |
| Clitocypin (from UniProt Q9P4A2) | 21.5 |

Target: T1, legumain AEP catalytic domain (Homo sapiens, UniProt Q99538)
T1 chain: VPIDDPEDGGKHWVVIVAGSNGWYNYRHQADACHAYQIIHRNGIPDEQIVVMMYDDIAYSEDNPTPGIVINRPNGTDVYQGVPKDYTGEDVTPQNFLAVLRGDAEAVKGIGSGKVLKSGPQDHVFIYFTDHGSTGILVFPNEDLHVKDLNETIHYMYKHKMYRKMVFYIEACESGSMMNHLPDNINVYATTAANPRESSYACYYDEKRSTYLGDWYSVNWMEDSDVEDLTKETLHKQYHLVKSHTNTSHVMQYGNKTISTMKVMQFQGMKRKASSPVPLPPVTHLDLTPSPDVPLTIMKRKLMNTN
Assay: enzyme inhibition assay (AAN-AMC)
Settings: not given

| Molecule | Ki [nM] |
| --- | --- |
| B1 | 147 |
| B2 | 6690 |
| B3 | 183 |
| B4 | 2.18 |
| B5 | 79 |
